Experiment: soluble on expression in E. coli; label from the status in PepcDB or PDB records

| Sequence | soluble on expression in E. coli |
| --- | --- |
| MEGLARVFLIGGASKAVRYDEQTTIERVIHVVARGIGISQVAVAHFALRLVTGPSPQTAGSGDSLWLHPMLRITQLPHIYARHLPIGVCDEIKLEMRMRFMPQSVYELQATDSSAFVYLHEQVVDEFFSHVAWRSSVEVALEVAALKVCRDFAEHQHNKGADHHLEDLDIEACIQSLIPNVLHNPGFKHSHLKKTFTAYIKKFSATSPNESIIRSLALLLEVVKFDVELFKASLGAGWTKPVELVVGPHTGLSYRLNERCDSSRLLELRTIAEITIRKMENGSEKTLMQLNLSGAAKPVLITLSTEELSQSLAHLLDGYQMLYNQRDSVFKLKGIERCETLTMHEATIRPKTPNNIDSNIRLRRELITLKELIGGGQFGNVYKAVYHDLEKDERIAVAVKVCKTDAEPADTQLILQESSLMRNFRHSNIIQLIGVCVDQPMWLVLELAPKGELREYLQQEKDWLPLRILTLFCSQICDSLVYLHSTRFVHRDIAARNILVCSPQCVKLADFGLSRALDYDAVYTASRGKLPIKWLAPESVNYRQFSMASDVWMFGVCMWEIFSLGVKPWAGVTNSDVIMHIEQGSRPPCPEKCPTALYNFIRSKMWAIEPHKRPTVDQIYAIIEDVRQQIIQNIPPEQIIVGKPMTAAGVIVAEMSSLPGLTLYRTMEDQKRQAEEDAKWLEQEDDEDEDDQDIDQIPSTSHSSVENIRTSNGYLHHTPTSTRSLRFEDKTSRGLRRSVDGVCDAVTKLQNSFNNLTHNDDFLHSVKEVTSQLREMLIVASGMRDRVTTTTQRTDVDMTKTLIANDMKQMSRVMGKLQVNGHQATYNTLRRDVVRICGELAVNCTTLQLQLTQPPLENEFSSLLSNC | not soluble |
| MNNEAVFSARLSSTQHVGLCRLCNSPLVHTFVDLGMSPPCESFVAADAANDVEPFYPLHAFVCDECFLVQLQEYVAPENIFTEYAYFSSFSDSWVAHAKRYCDMVIERFALGQSSFVVELASNDGYLLQHFLTSNIPMLGIEPAVNVAKVAIGKGIPTLTEFFNEALATDMAARGQKADLIIGNNVLAQVPDINDFVAGMKTLLKPEGVITLEFPHIEKLIAENQFDTIYHEHFSYFSLLTIEKMARRHGLKVFDVEEIPTHGGSLRVFFSHEDIRFPREARVDSLLARELNAGLDKIETYTAFAEAVRQTKRNLLSFLIRLKEMRKSICAYGAPGKGNTLLNYCGIGTDFIDFAVDRNPYKHGRLTPGMHIPIRPVSEIPHMKPDYVLILPWNLKNEIVAQMKDIRNWGGKFIVPIPDISIIDPKELVQ | not soluble |
| MTTTPANVLASVDLGSNSFRLQICENNNGQLKVIDSFKQMVRFAAGLDEQKNLSAASQEQALDCLAKFGERLRGFRPEQVRAVATNTFRVAKNIADFLPKAEAALGFPIEIIAGREEARLIYTGVIHTLPPGGGKMLVIDIGGGSTEFVIGSTLNPDITESLPLGCVTYSLRFFQNKITAKDFQSAISAARNEIQRISKNMRREGWDFAVGTSGSAKSIRDVLAAEMPQEADITYKGMRALAERIIEAGSVKKAKFENLKPERIEVFAGGLAVMMAAFEEMKLDRMTVTEAALRDGVFYDLIGRGLNEDMRGQTVAEFQHRYHVSLNQAKRTAETAQTFMDSLCHAKNVTVQELALWQQYLGRAAALHEIGLDIAHTGYHKHSAYILENADMPGFSRKEQTILAQLVIGHRGDMKKMSGIIGTNEMLWYAVLSLRLAALFCRSRQDLSFPKNMQLRTDTESCGFILRIDREWLERHPLIADALEYESVQWQKINMPFKVEAV | not soluble |
| MSLKSVIVPAPGKIEIREVETPVINAYQALVKTEMVALCNATDSKLIAGHFPGVDTYPLALGHENAGIVVAVGEKVRNFKVGDRAIGGLISDFGAQGINSGWGGFSEYVVVNDFEVLKEEGLATPEQGCWDSFEIQNSVPAHVQPEEAVISCTWREVLGAFKDFNLTPGKKVIVVGSGPVGLSFVKLGKLFGLGQIDIVDMLPAKLEVARRMGADNGYTPAEISTPEFIAAAGRSYDAVIDAVGLDVVVNSVLPLVKMGGDVCVYGVMTKNPTFDLSKAPYNFDLHMHQWPTRSEEKAAMTTLAQWIEEGTLSASDFITHRFKIEEIEEAFAAVKRGEVLKCVLTEGHHHHHH | not soluble |
| MGSDKIHHHHHHMRLKITHRTEYRYDAPVQYLLQRLRLLPVSGQTQTVLSWALKVEGAREEVRFTDHYGNDTRLLSVEGDHDFITVEASGEVVTRDTSGVCGSHQGFAPLWLFAQETPLTAIGGGIRKLAEAVGTGTDIERLHRLMAMIGERVAYTPGSTKATTPAEEALALKTGVCQDHSHIFAAAARAMGFPSRYVSGYLMMDAVEQAASHAWAEAHVPGLGWVAFDPANGISPDERYVKVATGRDYRDASPVSGIRQGQAEERLAVTVTVEQ | not soluble |
| MGSDKIHHHHHHMVAIDLPYDKRTITAQIDDENYAGKLVSQAATYHNKLSEQETVEKSLDNPIGSDKLEELARGKHNIVIISSDHTRPVPSHIITPILLRRLRSVAPDARIRILVATGFHRPSTHEELVNKYGEDIVNNEEIVMHVSTDDSSMVKIGQLPSGGDCIINKVAAEADLLISEGFIESHFFAGFSGGRKSVLPGIASYKTIMANHSGEFINSPKARTGNLMHNSIHKDMVYAARTAKLAFIINVVLDEDKKIIGSFAGDMEAAHKVGCDFVKELSSVPAIDCDIAISTNGGYPLDQNIYQAVKGMTAAEATNKEGGTIIMVAGARDGHGGEGFYHNLADVDDPKEFLDQAINTPRLKTIPDQWTAQIFARILVHHHVIFVSDLVDPDLITNMHMELAKTLDEAMEKAYAREGQAAKVTVIPDGLGVIVK | not soluble |
| MKIYCCLNTVGFFMDGCGVIPPDSKEITAEHWQSLLKSQAEGGVIDFSVFPPSIKEVIRTHDDEVADANFQKQMLISDATDFINSRQWQGKAALGRLKEDELKQYNLWLDYLEALELVDTSSAPDIEWPTPPAVQARLEHHHHHH | soluble |
| MGHHHHHHSHMANSAGSMANSAGSPGSLFRFAVPPALGSNLTDNVMITVDIIPSGWNSADGKSDKTKSAPSRDPERLQKIKESLLLEDSEEEEGDLCRICQMAAASSSNLLIEPCKCTGSLQYVHQDCMKKWLQAKINSGSSLEAVTTCELCKEKLELNLEDFDIHELHRAHANEQAEYEFISSGLYLVVLLHLCEQSFSDMMGNTNEPSTRVRFINLARTLQAHMEDLETSEDDSEEDGDHNRTFDIA | soluble |
| METKYRKPFVYEFITEKEVMNAANDLVKKGIEQKDIYVLTHEKERTDRIADNADVNTIGIKEEGLGTSIINVFQKTGDQLRNKMQELGLNEEEANFYEEKLDEGKILLFVKDLERVGEWLHERRCMYSI | not soluble |
| MSLGQLLSHPIEEKELDYKSYTNLTYCIGSMQGYRMTMEDAHDVKINEHENLAVFGIFDGHGGKNCSQYLAEHLPKLVFTKLNKIASAVYLKQVKDIDLKDVFDILKNSFFKIDKDLSHHANMVNCGSTATVVTIIANYIVVANTGDSRCIVSRNGHAKPLSFDHKPSNMGERVRIENSNGYILNNRINEVLALSRAFGDFKFKLPYLSSSRNKYIKENQKLLGDKLITLPPELFQVTVEPDIMLYDMQKLDSPEFLVIACDGVWDCFKNGQLVKLIRDKLSLGWRLNKIVEYILNDSLTMANNYTGIGFDNMTLIIVAIHKEGHHHHHH | soluble |
| MTFAEYFKNWYIFYKKPKVSKVTLNRYQYTYNVINEYFGNKLLKDITRANYQKFIVKYGQNHSPNTMKMINNCIKACVKNAVYDEEIKKDFTYNIELISNRDNVVQLEHHHHHH | not soluble |
| MNDFHRDTWAEVDLDAIYDNVENLRRLLPDDTHIMAVVKANAYGHGDVQVARTALEAGASRLAVAFLDEALALREKGIEAPILVLGASRPADAALAAQQRIALTVFRSDWLEEASALYSGPFPIHFHLKMDTGMGRLGVKDEEETKRIVALIERHPHFVLEGLYTHFATADEVNTDYFSYQYTRFLHMLEWLPSRPPLVHCANSAASLRFPDRTFNMVRFGIAMYGLAPSPGIKPLLPYPLKEAFSLHSRLVHVKKLQPGEKVSYGATYTAQTEEWIGTIPIGYADGWLRRLQHFHVLVDGQKAPIVGRICMDQCMIRLPGPLPVGTKVTLIGRQGDEVISIDDVARHLETINYEVPCTISYRVPRIFFRHKRIMEVRNAIGRGESSA | soluble |
| ALAQKRDNVLFQAATDEQPAVIKTLEKLVNIETGTGDAEGIAAAGNFLEAELKNLGFTVTRSKSAGLVVGDNIVGKIKGRGGKNLLLMSHMDTVYLKGILAKAPFRVEGDKAYGPGIADDKGGNAVILHTLKLLKEYGVRDYGTITVLFNTDEEKGSFGSRDLIQEEAKLADYVLSFEPTSAGDEKLSLGTSGIAYVQVNITGKASHAGAAPELGVNALVEASDLVLRTMNIDDKAKNLRFNWTIAKAGNVSNIIPASATLNADVRYARNEDFDAAMKTLEERAQQKKLPEADVKVIVTRGRPAFNAGEGGKKLVDKAVAYYKEAGGTLGVEERTGGGTDAAYAALSGKPVIESLGLPGFGYHSDKAEYVDISAIPRRLYMAARLIMDLGAGK | soluble |
| MPAHSLSLYQYYRPPLDWQAQLAFYRLRAVAGMEWFSNTDNDCLEKIAQDKQALEYGRTLQIDDIRAVVHIIHEAHLHRFKLTLTFTPDSPIAGLQKLITQVRRILDLDADMQQIEHNLQRLTDLKLIPKSGLRIPGAGSLEHHHHHH | not soluble |
| MSDSQEQLISSENTEVDKQAEEDRKLRRLNRRKALALERSPLPVPKLGRVLLSANSTIDLTNEDDDPSNKWFKKTFNAEKIPKLAKSPEEAKLFAVPRKISKNAPKSLLTSETLKKKLQASMSAKRRKEQEQRRKMYEEDNEHLKAGSDEEEEEDVVFKKKKGKKPVNEEEYKSEDDEDYEPENSGEEDSDEKNNGRADDEMSVNLLNDSFTYDVFNNVKRSGPGSTVSNFDSRSEADVVEKNGVVQLPTMTEITGGSNDILNLCPGSFGVSQSAGFPDTLQMLIEEDTTERKINLPQNSTSVSSDKPRLEESESEDEDDVGVKRRLPAVKNHRVLDSDEEDDVIEETLPSQDVFGSGTLEDSETIKEICEKSGEFTEKIETVLEEKTELKRVVLSDGEDSDEEAEEAEEEGDDEEEPEEDDIESENDEAETEGVEAPDPNFDDEDDELAILKRLQHQEYKQKIKKRTLFDDEASLSGDDVGSDLEDEEGMENVYEAEEGDADDVPDNDTIRRQNHKLLLKQENDKEQRELAKLQDRLLADGDLGGVETNRQFRFKLREEVQIQMGDDVDGNDGDGEDDEPEEDEQKKKERAEMIKFKYEHAEELMLLDEPKQGDDMFARAGKLFKKTEKTVIEFSEETMFKPRLSKPSLLSKTTLAVTFQEVLNGPGGAAKQMYVQSFEKPTPLSTGHISSPSSRLSTGKRLLKSPESSASAKRVRSSKLSSLE | not soluble |
| MGSDKIHHHHHHMPNQPLIFDTAIAKDKPENIRHPHNACPFCDPGQLTDIIAQDADRIWLLNKFPTLQATWQTIVIEAARHDGDIATYSSAQNRAVFTFALKHWQATIASGRFKSVLCYKNFGPHSGGSLRHPHMQIVGLMAADGYANVTAANLTGYSVLAVDQVQVTVSDRPIMGFVEINVAAPATAIAPLADAVQQVVQYTLNTYFHGQCDSYNLFFYPRDDQIVAKVVPLFNVSPYYIGYRLAQADTPKRMRAIAEEIRQQFERSNLAHSN | not soluble |
| MGSDKIHHHHHHMKQVSIIGAGIGGLTAAVRLQKLGYNVTIYEQNAQPGGKMNQIVSQGFTFDVGPTIVMMKDIYEEVFRFCGVDPHNYLPFEEVQPLMHLVFGDQSSLDLSRDLPTLIAEINRIAPDDVNGMLNFLADIYHRYTIAKPNFLERSFRNWRDFYNLPALYAGLQLRTFNNAYKNIAKFIKNENLRNSLAFQTLYIGISPYQGPSLYNIIPMIELFYGVYFLKGGMYTVVNSLVKLFKEQGGTLKLATPVQEIIIKDKVAVGIRVNNHPIHSDYVLCNADFPTAMTTLIPNEQDRGQYTDQKIAKMDYSCSCLVLYLGLDKKYPTEALHTIHFAQDFSKNVADLFDNGKLPEDPSYYVYVPSKMDPSLAPENSEALYVLVPVPELSKFNDWSPTTLKNYRQLIINKLRQTATFSDIEQHIVVEKQFTPVDFKEQFGAYNGATFGLRPTLKQSNYYRPHNKFDYADHLYFCGSSTHPGAGVPIVMQSAKLAVEELIKDDQTNA | not soluble |
